In PMC7175280:

Molecular target: Mus musculus inward rectifier K+ (Kir) channel 3.1 - Paraburkholderia xenovorans KirBac1.3 chimera (Mus musculus | Paraburkholderia xenovorans (Burkholderia xenovorans LB400)) (UniProt P63250)
Test: SEC; HiLoad 16/600 Superdex 200 in 20 mM HEPES pH 7.5, 150 mM KCl, 5 mM DDM, 2 mM DTT, 1 mM EDTA, 0.02% NaN3; protein loaded at ~3 mg/mL; tetramer fractions collected

stoichiometry N: 4
Substance: Mus musculus inward rectifier K+ (Kir) channel 3.1 - Paraburkholderia xenovorans KirBac1.3 chimera (from UniProt P63250 181-371; P63250 181-371)
